Patent publication US12534534 (F STAR BETA, dated 2026)
Numbering of substitutions follows the chain as printed.

T1: mFc-Avi (mouse, UniProt P01863 99-330 = IgG part)
T1 construct: mouse Fc domain with Avi tag; negative control in the ELISA
T1 chain: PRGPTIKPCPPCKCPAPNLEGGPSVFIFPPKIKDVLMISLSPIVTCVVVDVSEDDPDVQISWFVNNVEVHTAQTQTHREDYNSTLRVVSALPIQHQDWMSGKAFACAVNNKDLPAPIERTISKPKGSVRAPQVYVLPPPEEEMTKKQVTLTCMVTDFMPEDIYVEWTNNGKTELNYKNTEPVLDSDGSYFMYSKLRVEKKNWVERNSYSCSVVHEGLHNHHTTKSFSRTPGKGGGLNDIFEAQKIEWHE

T2: human OX40-mFc (human, UniProt P43489 29-214)
T2 construct: produced in-house; negative control in the ELISA; also called human OX40-mFc-Avi; not shown: mFc part
T2 sequence: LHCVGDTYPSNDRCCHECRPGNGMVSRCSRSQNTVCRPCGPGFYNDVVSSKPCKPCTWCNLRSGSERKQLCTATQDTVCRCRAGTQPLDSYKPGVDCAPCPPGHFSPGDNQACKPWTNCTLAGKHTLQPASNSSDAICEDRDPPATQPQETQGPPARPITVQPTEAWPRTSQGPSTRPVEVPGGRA

T3: cyno CD137 on DO11.10-cCD137 cells (cynomolgus, UniProt Q07011 24-255 (human entry))
T3 construct: full-length cyno CD137 over-expressed on DO11.10 cells; also called cell surface-expressed cyno CD137
T3 chain: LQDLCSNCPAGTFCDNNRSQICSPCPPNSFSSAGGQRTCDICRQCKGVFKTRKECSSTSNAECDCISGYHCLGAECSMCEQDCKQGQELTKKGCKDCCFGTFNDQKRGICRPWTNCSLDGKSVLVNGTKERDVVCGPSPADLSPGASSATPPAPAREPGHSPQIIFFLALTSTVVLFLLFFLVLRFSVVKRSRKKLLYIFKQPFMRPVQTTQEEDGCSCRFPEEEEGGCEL

T4: GITR-hFc-Avi (human, UniProt Q9Y5U5 26-161)
T4 construct: in-house produced; not shown: hFc and Avi part
T4 sequence: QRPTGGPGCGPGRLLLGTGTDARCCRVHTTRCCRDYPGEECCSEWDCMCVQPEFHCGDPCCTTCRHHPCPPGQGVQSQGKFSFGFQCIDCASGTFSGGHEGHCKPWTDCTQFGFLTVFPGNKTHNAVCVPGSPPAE

T5: TNFRSF1B-Fc (human, UniProt P20333 23-257)
T5 construct: bought; also called TNFRSF1B (R&D Systems, 726-R2-050); not shown: Fc part of the bought fusion
T5 sequence (looked up): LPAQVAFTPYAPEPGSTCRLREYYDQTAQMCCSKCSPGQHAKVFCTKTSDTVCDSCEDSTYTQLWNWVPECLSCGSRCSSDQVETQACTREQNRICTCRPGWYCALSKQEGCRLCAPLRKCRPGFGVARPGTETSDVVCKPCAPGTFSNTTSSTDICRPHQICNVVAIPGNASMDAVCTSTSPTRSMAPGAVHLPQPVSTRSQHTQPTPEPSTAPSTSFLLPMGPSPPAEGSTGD

T6: TNFRSF1A-Fc (human, UniProt P19438 30-211, limits assumed)
T6 construct: bought; also called TNFRSF1A (R&D Systems, 372-RI-050/CF); not shown: Fc part of the bought fusion
T6 sequence (looked up): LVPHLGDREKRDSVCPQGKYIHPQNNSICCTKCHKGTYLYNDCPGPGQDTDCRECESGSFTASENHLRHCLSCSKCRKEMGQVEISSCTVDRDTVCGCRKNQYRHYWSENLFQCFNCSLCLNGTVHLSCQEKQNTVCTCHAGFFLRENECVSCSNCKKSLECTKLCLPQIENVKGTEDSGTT

T7: NGFR-Fc (human, UniProt P08138 29-250)
T7 construct: bought; also called NGFR (R&D Systems, 367-NR-050/CF); not shown: Fc part of the bought fusion
T7 sequence (looked up): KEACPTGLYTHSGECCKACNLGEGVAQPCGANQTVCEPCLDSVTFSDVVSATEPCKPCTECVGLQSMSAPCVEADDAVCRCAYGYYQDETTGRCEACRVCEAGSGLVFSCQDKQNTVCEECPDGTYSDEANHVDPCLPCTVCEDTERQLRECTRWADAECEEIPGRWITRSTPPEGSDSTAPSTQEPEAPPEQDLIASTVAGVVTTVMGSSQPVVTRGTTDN

B1: G1AA/FS30-5 (antibody, human IgG1, kappa, L234A L235A, V domains shown)
VH: EVQLLESGGGLVQPGGSLRLNCAASGFTFSSYAMSWVRQAPGKGLEWVSAISGSGGSTYYADSVKGRFTISRDNSKNTLYLQMNSLRAEDTAVYYCARSYDKYWGSSMYSGMDYWGQGTLVTVSS
VL: EIVLTQSPGTLSLSPGERATLSCRASQSVSSSYLAWYQQKPGQAPRLLIYGASSRATGIPDRFSGSGSGTDFTLTISRLEPEDFAVYYCQQYYSYYPVTFGQGTKVEIKR
notes: human IgG1 with LALA mutation in CH2; also called FS30-5 mAb
B2: G1AA/FS30-16 (antibody, human IgG1, kappa, L234A L235A, V domains shown)
VH: EVQLLESGGGLVQPGGSLRLSCAASGFTFSNYAMHWVRQAPGKGLEWVSTIDPTDGATNYADSVKGRFTISRDNSKNTLYLQMNSLRAEDTAVYYCARSKYYTYMQYVALDYWGQGTLVTVSS
VL: B1 VL with Y92G, Y93S, S94R, Y95F, Y96F, V98I
notes: human IgG1 with LALA mutation in CH2; also called FS30-16 mAb
B3: FS20-22-49AA/FS30-16 variant, Methionine (100A) to F (bispecific antibody, V domains shown)
VH: B2 VH with M105F
VL: B1 VL with Y92G, Y93S, S94R, Y95F, Y96F, V98I
notes: Single-site variant of the parent mAb^2 FS20-22-49AA/FS30-16
B4: G1AA/FS30-15 (antibody, human IgG1, kappa, L234A L235A, V domains shown)
VH: EVQLLESGGGLVQPGGSLRLSCAASGFTFSGSGMSWVRQAPGKGLEWVSIIYSTNGDTDYADSVKGRFTISRDNSKNTLYLQMNSLRAEDTAVYYCARDFYDIANYYAFDYWGQGTLVTVSS
VL: EIVLTQSPGTLSLSPGERATLSCRASQSVSSSYLAWYQQKPGQAPRLLIYGASSRATGIPDRFSGSGSGTDFTLTISRLEPEDFAVYYCQQAYYDPITFGQGTKVEIKR
notes: human IgG1 with LALA mutation in CH2; also called FS30-15 mAb
B5: G1AA/FS30-10 (antibody, human IgG1, kappa, L234A L235A, V domains shown)
VH: EVQLLESGGGLVQPGGSLRLSCAASGFTFSSYDMSWVRQAPGKGLEWVSDIDPTGSKTDYADSVKGRFTISRDNSKNTLYLQMNSLRAEDTAVYYCARDLMVYGFDYWGQGTLVTVSS
VL: B4 VL with A92S, Y94S, D95Y, I97V
notes: human IgG1 with LALA mutation in CH2; also called FS30-10 mAb

Legend:
mFc-Avi = molecular target: T1, mFc-Avi; test: ELISA on streptavidin plates, mAb 0.1 to 300 nM
Description: (§1) Blocking solution was discarded and a dilution series of anti-CD137 mAb concentrations (0.1 to 300 nM, 3-fold dilutions) was added and incubated for 1 hour at room temperature whilst shaking at 450 rpm. Plates were washed 3× with 300 µl PBS/Tween 0.05%. Goat anti-human IgG (Fc fragment) antibody conjugated to Horseradish Peroxidase (Sigma, A0170) was diluted 1:10000 in PBS and 90 µl was added to the wells. After incubation for 1 hour at 4° C. whilst shaking at 450 rpm, plates were washed 3× with 300 µl PBS/Tween 0.05%, 100 µl TMB substrate (eBioscience, 00-4201-56) was added to each well. The reaction was stopped between 2-10 minutes after addition of TMB by the addition of 50 µl 1M sulphuric acid solution. Optical density (OD) was read at 450-630 nm in a 96-well plate reader within 30 minutes of sulphuric acid addition and analysed using GraphPad Prism software (GraphPad Software, Inc.).

streptavidin = molecular target: T8, streptavidin (UniProt P22629 37-163, limits assumed); test: ELISA on streptavidin plates, mAb 0.1 to 300 nM
T8 construct: negative control in the ELISA; also called Streptavidin plates (Thermo Scientific, 15500)
T8 sequence (P22629 37-163 limits assumed): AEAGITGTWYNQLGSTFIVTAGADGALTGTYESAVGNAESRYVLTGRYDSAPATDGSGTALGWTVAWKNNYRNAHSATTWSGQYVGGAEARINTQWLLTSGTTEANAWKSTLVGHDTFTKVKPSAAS
Description: as §1

human OX40-mFc = molecular target: T2, human OX40-mFc; test: ELISA on streptavidin plates, mAb 0.1 to 300 nM
Description: as §1

[1] = molecular target: human CD137 on primary human CD8+ T cells (human, UniProt Q07011 24-255); test: cell-based or functional assay
Sequence of human CD137 on primary human CD8+ T cells (Q07011 24-255): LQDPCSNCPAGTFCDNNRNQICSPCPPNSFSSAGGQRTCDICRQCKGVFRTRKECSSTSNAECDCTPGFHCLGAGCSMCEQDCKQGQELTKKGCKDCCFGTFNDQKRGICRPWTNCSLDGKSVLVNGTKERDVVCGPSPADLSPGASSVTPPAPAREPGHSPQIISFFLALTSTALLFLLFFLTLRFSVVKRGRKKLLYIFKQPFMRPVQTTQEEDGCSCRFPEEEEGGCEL

[2] = molecular target: T3, cyno CD137 on DO11.10-cCD137 cells; test: flow cytometry on DO11.10-cCD137 cells, GMFI vs concentration
Description: (§2) Non-specific binding was also assessed by testing binding to DO11.10 cells and HEK293 cells lacking CD137 expression.
(§3) Briefly, DO11.10, HEK293, DO11.10-hCD137 or DO11.10-cCD137 suspensions were prepared in PBS containing 2% BSA (Sigma, A7906) and seeded at 4×10^6 cell/ml with 50 µl/well in V-bottomed 96-well plates (Costar, 3897). mAb dilutions (1·10^-6-100 nM, 10-fold dilutions) were prepared at 2× the final concentration in triplicate in 1×DPBS (Gibco, 14190-094). […] The cells were washed once with PBS and resuspended in 100 µl of PBS containing DAPI (Biotium, 40043) at 1 µg/ml. The cells were analysed using a Canto II flow cytometer (BD Bioscience). Dead cells were excluded and the fluorescence in the FITC channel (488 nm/530/30) was measured. The geometric mean fluorescence intensity (GMFI) values were plotted vs the log concentration of antibody and the resulting curves were fitted using the log (agonist) vs response equation in GraphPad Prism.

[3] = molecular target: T9, human CD137 on DO11.10-hCD137 cells (human, UniProt Q07011 24-255); test: flow cytometry on DO11.10-hCD137 cells, GMFI vs concentration
T9 construct: full-length human CD137 over-expressed on DO11.10 cells by lentiviral transduction; also called cell surface-expressed human CD137
Description: as §2, §3
Target sequence in this assay (Q07011 24-255): as above

[4] = molecular target: T9, human CD137 on DO11.10-hCD137 cells; test: cell binding at 10 nM to DO11.10-hCD137 cells, against the parent FS20-22-49AA/FS30-16
CD40-mFc = molecular target: T10, CD40-mFc (human, UniProt P25942 21-193); test: SPR, antigen immobilised on CM5 chip
T10 construct: in-house produced; not shown: mFc part
T10 sequence (P25942 21-193): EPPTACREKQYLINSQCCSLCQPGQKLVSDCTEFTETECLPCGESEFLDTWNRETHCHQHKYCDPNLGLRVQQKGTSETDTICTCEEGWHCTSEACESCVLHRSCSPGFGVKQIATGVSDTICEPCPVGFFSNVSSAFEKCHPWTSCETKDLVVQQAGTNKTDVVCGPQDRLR
Description: (§4) Flow cell 1 was run as a blank immobilisation. The five FS20-22-49AA/FS30 mAb² were diluted to 1 μM and 1 nM in 1×HBS-EP buffer (GE Healthcare, product code BR100188), allowed to flow over the chip for 3 min and then allowed to dissociate for 4 minutes. A 30-second injection of 10 mM glycine pH 1.5 was used for regeneration. […] Binding levels were determined at the end of the association phase and compared.
(§5) Specificity was tested against the same five human TNFRSF members closely-related to CD137 (TNFRSF1A, TNFRSF1B, GITR, NGFR and CD40) plus an additional closely-related TNFRSF member, human DR6 (DR6-Fc; R&D Systems, 144-DR-100), using SPR as described in Example 3.1.

GITR-hFc-Avi = molecular target: T4, GITR-hFc-Avi; test: SPR, antigen immobilised on CM5 chip
Description: as §4, §5

TNFRSF1B-Fc = molecular target: T5, TNFRSF1B-Fc; test: SPR, antigen immobilised on CM5 chip
Description: as §4, §5

TNFRSF1A-Fc = molecular target: T6, TNFRSF1A-Fc; test: SPR, antigen immobilised on CM5 chip
Description: as §4, §5

NGFR-Fc = molecular target: T7, NGFR-Fc; test: SPR, antigen immobilised on CM5 chip
Description: as §4, §5

Binder | binding result (mFc-Avi) | binding result (streptavidin) | binding result (human OX40-mFc) | Activity of non-crosslinked mAbs at 100 nM (hIL-2 pg/ml) [1] | EC50 (nM), hIL-2 release, primary human CD8+ T cell activation assay, crosslinked mAb [1] | Emax (hIL-2 pg/ml), crosslinked mAb [1] | EC50 [2] | EC50 [3] | fold change of cell binding at 10 nM against the parent clone [4] | binding result (CD40-mFc) | binding result (GITR-hFc-Avi) | binding result (TNFRSF1B-Fc) | binding result (TNFRSF1A-Fc) | binding result (NGFR-Fc)
B1 | no binding (tested: 300 nM) | no binding (tested: 300 nM) | no binding (tested: 300 nM) | 509 pg/mL | 3.2 nM | 10900 pg/mL | 0.45 nM | 0.24 nM | – | – | – | – | – | –
B2 | no binding (tested: 300 nM) | no binding (tested: 300 nM) | no binding (tested: 300 nM) | 402 pg/mL | 1.4 nM | 4840 pg/mL | 0.36 nM | 0.21 nM | – | – | – | – | – | –
B3 | – | – | – | – | – | – | – | – | < 1.6 fold | – | – | – | – | –
B4 | no binding (tested: 300 nM) | no binding (tested: 300 nM) | no binding (tested: 300 nM) | 449 pg/mL | 8.5 nM | 11100 pg/mL | 0.31 nM | 0.15 nM | – | binds | binds | binds | binds | binds
B5 | no binding (tested: 300 nM) | no binding (tested: 300 nM) | no binding (tested: 300 nM) | 497 pg/mL | 5.4 nM | 8560 pg/mL | 0.57 nM | 0.32 nM | – | – | – | – | – | –
